Source: patent US20240261333A1, “NOVEL TARGETS FOR ENHANCING ANTI-TUMOR IMMUNITY” (THE BROAD INSTITUTE, INC., priority 2021, published 2024)

What was measured:
Experiment in all cases: co-IP, IgG control, lysate of cells with C-FLAG B3GNT2; mass spectrometry
HSPA8 (human) = HSPA8 (human) (UniProt P11142)
G3BP1 (human) = G3BP1 (human) (UniProt Q13283)
LSM12 (human) = LSM12 (human) (UniProt Q3MHD2)
EIF5B (human) = EIF5B (human) (UniProt O60841)
RBM39 (human) = RBM39 (human) (UniProt Q14498)
SPTAN1 (human) = SPTAN1 (human) (UniProt Q13813)
PARP1 (human) = PARP1 (human) (UniProt P09874)
HNRNPK (human) = HNRNPK (human) (UniProt P61978)
RPL4 (human) = RPL4 (human) (UniProt P36578)
MYH11 (human) = MYH11 (human) (UniProt P35749)
ATXN2 (human) = ATXN2 (human) (UniProt Q99700)
NUFIP2 (human) = NUFIP2 (human) (UniProt Q7Z417)
CAT (human) = CAT (human) (UniProt P04040)
MOV10 (human) = target: T1, MOV10 (human) (UniProt Q9HCE1)
T1 sequence (looked up): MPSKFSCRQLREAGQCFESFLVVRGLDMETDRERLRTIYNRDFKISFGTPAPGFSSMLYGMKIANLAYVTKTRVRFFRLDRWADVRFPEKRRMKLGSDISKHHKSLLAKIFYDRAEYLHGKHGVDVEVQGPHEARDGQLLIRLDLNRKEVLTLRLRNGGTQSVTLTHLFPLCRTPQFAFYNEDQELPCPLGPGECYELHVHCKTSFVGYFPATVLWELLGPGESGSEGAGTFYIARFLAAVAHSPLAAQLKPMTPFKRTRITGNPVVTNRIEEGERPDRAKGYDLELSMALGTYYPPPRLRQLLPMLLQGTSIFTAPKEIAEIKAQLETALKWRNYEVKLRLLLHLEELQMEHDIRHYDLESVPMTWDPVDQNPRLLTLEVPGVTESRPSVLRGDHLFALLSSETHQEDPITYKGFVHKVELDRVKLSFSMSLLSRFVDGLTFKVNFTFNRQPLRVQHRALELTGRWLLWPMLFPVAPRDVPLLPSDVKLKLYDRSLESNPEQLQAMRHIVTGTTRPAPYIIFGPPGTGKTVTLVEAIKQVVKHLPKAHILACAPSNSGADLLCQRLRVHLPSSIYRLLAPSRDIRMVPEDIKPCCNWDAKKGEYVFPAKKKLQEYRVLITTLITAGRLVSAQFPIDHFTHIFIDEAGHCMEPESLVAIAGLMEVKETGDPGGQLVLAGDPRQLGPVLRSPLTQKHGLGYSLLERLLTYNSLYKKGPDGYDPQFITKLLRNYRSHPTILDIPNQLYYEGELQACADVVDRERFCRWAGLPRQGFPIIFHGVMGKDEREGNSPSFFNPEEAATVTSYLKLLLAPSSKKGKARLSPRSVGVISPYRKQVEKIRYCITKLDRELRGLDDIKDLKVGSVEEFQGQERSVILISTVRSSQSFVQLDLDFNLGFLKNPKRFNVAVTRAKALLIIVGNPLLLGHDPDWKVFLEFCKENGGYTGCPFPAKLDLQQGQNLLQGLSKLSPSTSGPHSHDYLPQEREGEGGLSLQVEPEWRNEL

GGCT (human) = GGCT (human) (UniProt O75223)
UBAP2L (human) = UBAP2L (human) (UniProt Q14157)
DDX5 (human) = DDX5 (human) (UniProt P17844)
HNRNPA2B1 (human) = HNRNPA2B1 (human) (UniProt P22626)
FAU (human) = FAU (human) (UniProt P62861)
KRT4 (human) = KRT4 (human) (UniProt P19013)
LMNA (human) = LMNA (human) (UniProt P02545)
FUBP3 (human) = FUBP3 (human) (UniProt Q96I24)
RPL18 (human) = RPL18 (human) (UniProt Q07020)

Sequence of NUFIP2 (human) (Q7Z417 whole entry): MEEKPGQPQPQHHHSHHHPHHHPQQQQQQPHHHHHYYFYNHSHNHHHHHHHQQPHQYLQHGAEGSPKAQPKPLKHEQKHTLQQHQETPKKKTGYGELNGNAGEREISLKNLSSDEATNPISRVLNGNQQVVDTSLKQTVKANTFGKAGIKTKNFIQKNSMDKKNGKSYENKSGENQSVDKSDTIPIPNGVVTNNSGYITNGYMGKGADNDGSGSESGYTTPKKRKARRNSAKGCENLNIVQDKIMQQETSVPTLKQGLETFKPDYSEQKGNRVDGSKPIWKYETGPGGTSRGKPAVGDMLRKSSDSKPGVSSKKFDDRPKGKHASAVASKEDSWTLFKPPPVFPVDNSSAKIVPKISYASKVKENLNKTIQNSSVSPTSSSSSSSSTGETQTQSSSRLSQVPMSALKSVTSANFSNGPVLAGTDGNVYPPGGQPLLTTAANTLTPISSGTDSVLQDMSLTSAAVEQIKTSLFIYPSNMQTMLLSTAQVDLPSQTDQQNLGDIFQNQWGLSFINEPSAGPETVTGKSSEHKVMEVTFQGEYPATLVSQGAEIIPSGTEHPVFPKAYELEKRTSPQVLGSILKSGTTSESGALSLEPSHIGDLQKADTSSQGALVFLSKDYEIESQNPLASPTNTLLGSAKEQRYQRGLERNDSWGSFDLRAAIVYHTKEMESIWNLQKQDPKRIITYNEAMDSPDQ
Sequence of HSPA8 (human) (P11142 2-646 limits assumed): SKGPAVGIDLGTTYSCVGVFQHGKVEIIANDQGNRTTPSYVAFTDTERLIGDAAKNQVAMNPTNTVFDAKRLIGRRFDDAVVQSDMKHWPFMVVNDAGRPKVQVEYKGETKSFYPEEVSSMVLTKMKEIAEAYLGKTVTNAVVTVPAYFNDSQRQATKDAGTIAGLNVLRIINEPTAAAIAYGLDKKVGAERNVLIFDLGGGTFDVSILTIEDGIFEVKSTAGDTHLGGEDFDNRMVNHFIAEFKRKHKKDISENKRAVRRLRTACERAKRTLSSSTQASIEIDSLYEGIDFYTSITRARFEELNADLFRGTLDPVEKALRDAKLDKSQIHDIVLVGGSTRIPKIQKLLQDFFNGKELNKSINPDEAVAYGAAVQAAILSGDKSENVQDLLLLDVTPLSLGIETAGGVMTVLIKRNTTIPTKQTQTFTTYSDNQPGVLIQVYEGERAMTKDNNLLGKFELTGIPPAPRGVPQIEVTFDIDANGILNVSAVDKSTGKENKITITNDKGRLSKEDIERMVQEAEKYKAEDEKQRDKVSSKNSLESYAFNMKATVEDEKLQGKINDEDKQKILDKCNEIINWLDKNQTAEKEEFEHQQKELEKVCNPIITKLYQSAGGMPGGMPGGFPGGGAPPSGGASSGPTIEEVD
Sequence of RBM39 (human) (Q14498 other isoform, or with tags, fused parts or gaps limits assumed): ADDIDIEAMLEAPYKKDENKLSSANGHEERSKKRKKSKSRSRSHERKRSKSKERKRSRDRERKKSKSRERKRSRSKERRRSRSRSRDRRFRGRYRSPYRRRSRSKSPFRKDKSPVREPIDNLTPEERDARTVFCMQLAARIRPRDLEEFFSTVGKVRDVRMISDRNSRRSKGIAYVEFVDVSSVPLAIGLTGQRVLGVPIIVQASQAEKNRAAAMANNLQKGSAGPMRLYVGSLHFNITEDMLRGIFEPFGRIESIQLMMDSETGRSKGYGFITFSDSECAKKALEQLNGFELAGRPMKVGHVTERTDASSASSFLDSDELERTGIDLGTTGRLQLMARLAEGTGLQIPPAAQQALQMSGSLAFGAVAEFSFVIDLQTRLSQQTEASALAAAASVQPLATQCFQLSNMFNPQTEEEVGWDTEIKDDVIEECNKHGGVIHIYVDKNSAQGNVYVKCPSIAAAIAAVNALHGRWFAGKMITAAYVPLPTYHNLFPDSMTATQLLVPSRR
Sequence of G3BP1 (human) (Q13283 2-466 limits assumed): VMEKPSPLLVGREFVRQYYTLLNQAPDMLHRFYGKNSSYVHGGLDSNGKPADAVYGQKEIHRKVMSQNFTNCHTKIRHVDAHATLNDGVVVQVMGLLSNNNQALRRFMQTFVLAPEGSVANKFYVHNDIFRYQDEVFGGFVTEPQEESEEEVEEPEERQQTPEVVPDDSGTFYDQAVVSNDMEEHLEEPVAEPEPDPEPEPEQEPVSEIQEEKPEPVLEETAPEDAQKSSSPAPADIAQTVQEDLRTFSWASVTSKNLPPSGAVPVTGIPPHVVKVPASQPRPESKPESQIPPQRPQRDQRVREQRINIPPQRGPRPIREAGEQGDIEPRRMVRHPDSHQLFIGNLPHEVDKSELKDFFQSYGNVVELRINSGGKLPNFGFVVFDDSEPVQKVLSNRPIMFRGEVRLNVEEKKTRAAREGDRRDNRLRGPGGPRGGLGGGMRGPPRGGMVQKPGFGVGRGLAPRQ
Sequence of HNRNPK (human) (P61978 other isoform, or with tags, fused parts or gaps limits assumed): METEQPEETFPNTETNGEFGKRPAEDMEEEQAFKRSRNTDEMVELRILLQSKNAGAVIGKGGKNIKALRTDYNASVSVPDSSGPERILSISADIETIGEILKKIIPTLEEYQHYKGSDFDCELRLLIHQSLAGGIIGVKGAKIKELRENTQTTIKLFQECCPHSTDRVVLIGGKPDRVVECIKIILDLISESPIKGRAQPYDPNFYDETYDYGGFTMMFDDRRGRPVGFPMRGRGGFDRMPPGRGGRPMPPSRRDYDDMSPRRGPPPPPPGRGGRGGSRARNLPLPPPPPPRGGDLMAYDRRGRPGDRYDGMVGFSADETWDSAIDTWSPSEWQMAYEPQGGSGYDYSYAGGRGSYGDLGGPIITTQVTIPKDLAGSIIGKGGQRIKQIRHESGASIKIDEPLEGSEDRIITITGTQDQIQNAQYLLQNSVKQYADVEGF
Sequence of KRT4 (human) (P19013 whole entry): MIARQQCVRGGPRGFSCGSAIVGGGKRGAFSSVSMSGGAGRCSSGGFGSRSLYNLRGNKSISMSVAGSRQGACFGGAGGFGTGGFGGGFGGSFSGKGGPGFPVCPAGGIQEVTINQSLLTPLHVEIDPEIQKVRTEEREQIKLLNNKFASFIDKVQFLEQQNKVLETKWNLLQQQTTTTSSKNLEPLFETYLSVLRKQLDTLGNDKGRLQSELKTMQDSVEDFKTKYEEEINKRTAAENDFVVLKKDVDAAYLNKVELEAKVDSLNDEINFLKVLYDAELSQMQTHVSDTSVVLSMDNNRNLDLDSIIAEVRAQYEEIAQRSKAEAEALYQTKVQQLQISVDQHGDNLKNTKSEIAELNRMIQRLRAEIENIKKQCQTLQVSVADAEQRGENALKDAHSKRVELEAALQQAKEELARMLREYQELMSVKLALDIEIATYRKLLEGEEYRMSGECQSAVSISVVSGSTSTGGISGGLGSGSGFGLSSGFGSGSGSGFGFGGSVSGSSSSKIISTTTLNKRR
Sequence of PARP1 (human) (P09874 2-1014 limits assumed): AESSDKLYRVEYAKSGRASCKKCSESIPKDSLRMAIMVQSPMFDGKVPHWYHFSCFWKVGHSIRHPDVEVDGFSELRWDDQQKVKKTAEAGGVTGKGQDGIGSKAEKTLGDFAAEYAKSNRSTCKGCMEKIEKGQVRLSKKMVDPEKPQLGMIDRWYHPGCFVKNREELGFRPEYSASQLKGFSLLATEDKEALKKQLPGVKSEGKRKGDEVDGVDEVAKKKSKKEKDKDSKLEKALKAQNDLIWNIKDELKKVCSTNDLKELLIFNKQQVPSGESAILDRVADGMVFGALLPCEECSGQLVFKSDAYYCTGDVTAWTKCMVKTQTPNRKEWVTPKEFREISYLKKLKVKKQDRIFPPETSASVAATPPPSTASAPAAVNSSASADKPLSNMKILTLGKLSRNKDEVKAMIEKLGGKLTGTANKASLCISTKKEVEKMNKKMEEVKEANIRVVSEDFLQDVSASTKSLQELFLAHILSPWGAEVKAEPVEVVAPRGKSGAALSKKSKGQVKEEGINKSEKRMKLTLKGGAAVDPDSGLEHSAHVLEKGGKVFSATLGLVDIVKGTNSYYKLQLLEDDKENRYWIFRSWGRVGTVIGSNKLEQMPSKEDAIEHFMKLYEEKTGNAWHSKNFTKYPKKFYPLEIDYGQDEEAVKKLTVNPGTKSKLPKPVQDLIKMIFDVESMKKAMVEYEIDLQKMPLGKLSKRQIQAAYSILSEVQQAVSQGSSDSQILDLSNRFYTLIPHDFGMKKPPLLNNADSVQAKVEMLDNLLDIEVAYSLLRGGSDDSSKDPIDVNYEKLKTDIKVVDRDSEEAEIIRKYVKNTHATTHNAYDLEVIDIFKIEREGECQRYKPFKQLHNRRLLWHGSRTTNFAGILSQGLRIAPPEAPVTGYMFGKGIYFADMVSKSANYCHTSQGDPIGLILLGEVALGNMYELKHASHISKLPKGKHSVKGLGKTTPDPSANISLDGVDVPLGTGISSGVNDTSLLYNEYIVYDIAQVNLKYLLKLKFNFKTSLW
Sequence of HNRNPA2B1 (human) (P22626 other isoform, or with tags, fused parts or gaps limits assumed): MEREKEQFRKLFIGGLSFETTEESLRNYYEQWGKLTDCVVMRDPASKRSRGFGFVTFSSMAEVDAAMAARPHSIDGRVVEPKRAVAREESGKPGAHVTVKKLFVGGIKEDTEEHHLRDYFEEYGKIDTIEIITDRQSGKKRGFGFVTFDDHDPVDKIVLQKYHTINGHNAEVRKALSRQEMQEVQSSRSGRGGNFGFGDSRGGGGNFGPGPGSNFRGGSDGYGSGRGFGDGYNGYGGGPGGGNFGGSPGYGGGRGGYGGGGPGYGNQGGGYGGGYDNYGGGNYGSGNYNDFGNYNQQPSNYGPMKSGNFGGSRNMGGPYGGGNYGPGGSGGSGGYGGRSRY
Sequence of LSM12 (human) (Q3MHD2 2-195 limits assumed): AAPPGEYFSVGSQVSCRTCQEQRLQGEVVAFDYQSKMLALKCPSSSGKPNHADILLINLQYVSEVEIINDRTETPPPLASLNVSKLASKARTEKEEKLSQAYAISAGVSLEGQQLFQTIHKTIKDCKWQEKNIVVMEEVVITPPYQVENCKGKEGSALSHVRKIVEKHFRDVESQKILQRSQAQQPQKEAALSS

Substance “IgG control (Millipore Sigma 12-371) (antibody)” has a co-IP mass spectrometry count (HSPA8 (human)) of 15, a co-IP mass spectrometry count (G3BP1 (human)) of 25 and a co-IP mass spectrometry count (LSM12 (human)) of 0. For the same substance, the co-IP mass spectrometry count (EIF5B (human)) was 0, the co-IP mass spectrometry count (RBM39 (human)) was 3 and the co-IP mass spectrometry count (SPTAN1 (human)) was 0. It also gave a co-IP mass spectrometry count (PARP1 (human)) of 0, a co-IP mass spectrometry count (HNRNPK (human)) of 10 and a co-IP mass spectrometry count (RPL4 (human)) of 6. For the same substance, the co-IP mass spectrometry count (MYH11 (human)) was 5, the co-IP mass spectrometry count (ATXN2 (human)) was 3 and the co-IP mass spectrometry count (NUFIP2 (human)) was 4. The co-IP mass spectrometry count (CAT (human)) was 3, the co-IP mass spectrometry count (MOV10 (human)) was 3 and the co-IP mass spectrometry count (GGCT (human)) was 0. The co-IP mass spectrometry count (UBAP2L (human)) was 15, the co-IP mass spectrometry count (DDX5 (human)) was 16 and the co-IP mass spectrometry count (HNRNPA2B1 (human)) was 9. The co-IP mass spectrometry count (FAU (human)) was 5, the co-IP mass spectrometry count (KRT4 (human)) was 0 and the co-IP mass spectrometry count (LMNA (human)) was 18. The co-IP mass spectrometry count (FUBP3 (human)) was 7 and the co-IP mass spectrometry count (RPL18 (human)) was 7.
